Values joined by “and” are separate entries in the source; they are usually repeats but may differ in a detail not shown here. Identical values can stand only once.
B1: Clone 80 XT34 (anti-PD-L1 type III AFFIMER® XT in-line fusion monomer XT) (designed binder)
chain: MIPGGLSEAKPATPEIQEIVDKVKPQLEEKTGETYGKLEAVQYKTQVVRRKHFPQWPGTNYYIKVRAGDNKYMHLKVFKSLDLQPREVFQEDLVLTGYQVDKNKDDELTGFAEAAAKEAAAKEAAAKEAAAKEAAAKEAAAKMIPRGLSEAKPATPEIQEIVDKVKPQLEEKTNETYGKLEAVQYKTQVLANFFQRRWPGSTNYYIKVRAGDNKYMHLKVFNGPWKFRNTDRGADRVLTGYQVDKNKDDELTGFHHHHHH
notes: Made in E. coli; LC/MS found a +42-43 Da species, assigned as acetylated; also called XT34_1; XT34_2
B2: Clone 80 XT41 (designed binder)
chain: MIPGGLSEAKPATPEIQEIVDKVKPQLEEKTGETYGKLEAVQYKTQVVRRKHFPQWPGTNYYIKVRAGDNKYMHLKVFKSLDLQPREVFQEDLVLTGYQVDKNKDDELTGFGGGGSGGGGSGGGGSGGGGSGGGGSGGGGSMIPRGLSEAKPATPEIQEIVDKVKPQLEEKTNETYGKLEAVQYKTQVLANFFQRRWPGSTNYYIKVRAGDNKYMHLKVFNGPWKFRNTDRGADRVLTGYQVDKNKDDELTGFGGGGSGGGGSGGGGSGGGGSGGGGSGGGGSMIPRGLSEAKPATPEIQEIVDKVKPQLEEKTNETYGKLEAVQYKTQVLANFFQRRWPGSTNYYIKVRAGDNKYMHLKVFNGPWKFRNTDRGADRVLTGYQVDKNKDDELTGF
notes: One Clone 80 and two HSA-41 units joined by flexible (G4S)6 linkers; Made in E. coli; No tag is stated for this construct
B3: DC XT45 (dimer in-line fusion XT control) (designed binder)
chain: MIPGGLSEAKPATPEIQEIVDKVKPQLEEKTGETYGKLEAVQYKTQVVGGGGGGGGGGTNYYIKVRAGDNKYMHLKVFKSLGGGGGGGGGEDLVLTGYQVDKNKDDELTGFAEAAAKEAAAKEAAAKEAAAKEAAAKEAAAKMIPRGLSEAKPATPEIQEIVDKVKPQLEEKTNETYGKLEAVQYKTQVLANFFQRRWPGSTNYYIKVRAGDNKYMHLKVFNGPWKFRNTDRGADRVLTGYQVDKNKDDELTGF
B4: DC XT46 (trimer in-line fusion XT control) (designed binder)
chain: MIPGGLSEAKPATPEIQEIVDKVKPQLEEKTGETYGKLEAVQYKTQVVGGGGGGGGGGTNYYIKVRAGDNKYMHLKVFKSLGGGGGGGGGEDLVLTGYQVDKNKDDELTGFAEAAAKEAAAKEAAAKEAAAKEAAAKEAAAKMIPGGLSEAKPATPEIQEIVDKVKPQLEEKTGETYGKLEAVQYKTQVVGGGGGGGGGGTNYYIKVRAGDNKYMHLKVFKSLGGGGGGGGGEDLVLTGYQVDKNKDDELTGFAEAAAKEAAAKEAAAKEAAAKEAAAKEAAAKMIPRGLSEAKPATPEIQEIVDKVKPQLEEKTNETYGKLEAVQYKTQVLANFFQRRWPGSTNYYIKVRAGDNKYMHLKVFNGPWKFRNTDRGADRVLTGYQVDKNKDDELTGF
B5: HSA-41 (anti-serum albumin AFFIMER® polypeptide, monomer) (designed binder)
chain: MIPRGLSEAKPATPEIQEIVDKVKPQLEEKTNETYGKLEAVQYKTQVLANFFQRRWPGSTNYYIKVRAGDNKYMHLKVFNGPWKFRNTDRGADRVLTGYQVDKNKDDELTGF
notes: No tags are stated; also called HSA-41 monomer; XT polypeptide
B6: Clone 80 XT40 (designed binder)
chain: MIPGGLSEAKPATPEIQEIVDKVKPQLEEKTGETYGKLEAVQYKTQVVRRKHFPQWPGTNYYIKVRAGDNKYMHLKVFKSLDLQPREVFQEDLVLTGYQVDKNKDDELTGFAEAAAKEAAAKEAAAKEAAAKEAAAKEAAAKMIPRGLSEAKPATPEIQEIVDKVKPQLEEKTNETYGKLEAVQYKTQVLANFFQRRWPGSTNYYIKVRAGDNKYMHLKVFNGPWKFRNTDRGADRVLTGYQVDKNKDDELTGFFAEAAAKEAAAKEAAAKEAAAKEAAAKEAAAKMIPGGLSEAKPATPEIQEIVDKVKPQLEEKTGETYGKLEAVQYKTQVVRRKHFPQWPGTNYYIKVRAGDNKYMHLKVFKSLDLQPREVFQEDLVLTGYQVDKNKDDELTGF
notes: HSA-41 sits in the middle position between two Clone 80 units, joined by rigid A(EAAAK)6 linkers; Made in E. coli; No tag is stated for this construct

Legend:
[1] = biological target: T1, PD-L1 on cells (NCI-H441 cells; aAPC PD-L1/CHO-K1 cells, Promega) (human, UniProt Q9NZQ7 19-290); experiment: flow cytometry on NCI-H441 cells endogenously expressing PD-L1, anti-cystatin A antibody and AF488 secondary antibody, % positive cells
T1 construct: whole, on cells; also called human PD-L1-expressing CHO-K1 cells; H441 cells endogenously expressing PD-L1

[2] = biological target: T2, human PD-L1-Fc (R&D Systems) (human, UniProt Q9NZQ7 19-239); experiment: PD-L1/PD-1 competition ELISA (binding inhibition %): human PD-1-Fc coated, AFFIMER preincubated with huPD-L1-Fc at its EC80, bound PD-L1 detected; blocked ligand: human PD-1-Fc. The table column is headed 'EC50 (nM)'; the text calls the values IC50
T2 construct: Bought reagent; also called huPD-L1-Fc; huPD-L1; not shown: Fc part of the bought fusion
Protocol: Plates were washed two times with washing buffer (PBS, Tween 20 0.1%) with a plate washer and saturated with Casein 5% (Sigma) in PBS for 90 minutes at room temperature (25±1° C.). […] Plates were washed 3 times as described previously. […] Plates were washed 3 times as described previously and Streptavidin-HRP was added, and the plates were incubated for 30 minutes at room temperature (25±1° C.). Plates were washed a last time and the substrate (TMB; Pierce Thermo-Scientific) was added to the plate. After 10 minutes, the reaction was stopped using an acidic solution and the plates were read at absorbance 450-630 nm. The IC₅₀ was then calculated using the interpolated non-linear four-parameters standard curve.

[3] = biological target: T2, human PD-L1-Fc (R&D Systems); experiment: human PD-L1-Fc binding ELISA: huPD-L1-Fc coated, anti-cystatin A detection, no HSA in the assay buffer
Protocol: (§1) Plates were washed and AFFIMER® polypeptides were detected using streptavidin-HRP for 30 min. After the last washing step, the TMB substrate was added for the development of the experiment and plates were read at 450 nm. The EC₅₀ was then calculated using the interpolated non-linear four-parameters standard curve.

[4] = biological target: T2, human PD-L1-Fc (R&D Systems); experiment: human PD-L1-Fc/HSA bridging ELISA: huPD-L1-Fc coated, AFFIMER titrated with 10 µM HSA, detection with HRP-conjugated anti-HSA antibody (the signal needs PD-L1 and HSA bound at once)
Protocol: After saturation with 5% casein/PBS buffer, the plates were washed and a dilution of AFFIMER® polypeptides or controls was incubated with HSA at a final concentration of 10 μM for 90 minutes. Plates were then washed, and a […] polyclonal antibody, anti-HSA (HRP-conjugated) (Abcam), was added for 90 minutes. After a last washing step, TMB was added for the development of the experiment and the plates were read at 450 nm. The EC₅₀ was then calculated using the interpolated non-linear four-parameters standard curve (FIG. 10).

[5] = biological target: T3, human serum albumin (HSA) (human, UniProt P02768 25-609); experiment: SPR (Biacore 8K): HSA amine-coupled on a CM5 chip, AFFIMER as analyte, pH 7.4, 1:1 Langmuir fit
T3 construct: The assays used bought HSA (Sigma #A37812 in the SPR work); also called HuSA
Protocol: (§2) For the HSA binding kinetic analysis, HSA (Sigma #A37812) was immobilized on a CM5 chip surface using amine coupling in 10 mM sodium acetate (pH 5.0) (Cytvia). […] The chip surface was regenerated with 3 mM NaOH for 20 seconds at a flow rate of 20 μl/min. The kinetic data was blank subtracted and fit to a 1:1 Langmuir binding model (BIAcore evaluation software; Cytiva).

[6] = biological target: T1, PD-L1 on cells (NCI-H441 cells; aAPC …); experiment: cell-based or functional assay
[7] = biological target: T2, human PD-L1-Fc (R&D Systems); experiment: SPR (Biacore 8K): human PD-L1-Fc amine-coupled on a CM5 chip, AFFIMER as analyte, 1:1 Langmuir fit
[8] = biological target: T2, human PD-L1-Fc (R&D Systems); experiment: human PD-L1-Fc binding ELISA: huPD-L1-Fc coated, anti-cystatin A detection, with 10 µM HSA in the assay buffer
Protocol: as §1

[9] = biological target: T1, PD-L1 on cells (NCI-H441 cells; aAPC …); experiment: flow cytometry, % positive cells, NCI-H441 cells (endogenous PD-L1)
Protocol: (§3) Lung cancer cell line (NCI-H441 (ATCC), CHO-K1 recombinant cell line overexpressing PD-L1 aAPC/CHO-K1 (Promega J1252)) and a negative cell line (CHO-K1, ATCC) were used to assess AFFIMER® agent binding capacity to PD-L1 by flow cytometry.
(§4) Briefly, 50 000 cells were added to each well of a 96-well microplate. After this step and each subsequent step, cells were washed twice with PBS+2 mM EDTA using 350g centrifugation for 3 minutes at 4° C. All steps were performed at 4° C. using assay buffer comprising 5% FBS, 2 mM EDTA and 0.05% sodium azide in PBS unless otherwise stated. Independent AFFIMER® agent dilutions were prepared in duplicate and added to the plates. […] Fixation was performed for 10 minutes at 4° C. with Fixation Buffer (Bio-techne FC004). Cells were resuspended in 100 ul assay buffer prior the acquisition of the data. 5000 events were collected by Flow cytometry (Millipore Guava 12HT). The results were gated on live cells and singlets (SSC-H vs SSC-A). The percentage of cells expressing PD-L1 bound by the AFFIMER® agent (positive cells) was determined by using as negative control (background) where the wells were stained with the AF488 conjugated secondary antibody only without AFFIMER® agent. The average of the duplicate wells was used to calculate EC₅₀ using a four-parameter non-linear regression curve fit using Graphpad Prism software. […]

[10] = biological target: T1, PD-L1 on cells (NCI-H441 cells; aAPC …); experiment: flow cytometry, % positive cells, aAPC PD-L1/CHO-K1 cells (overexpressing PD-L1)
Protocol: as §3, §4

[11] = biological target: T3, human serum albumin (HSA); experiment: SPR (Biacore 8K): HSA amine-coupled on a CM5 chip, AFFIMER as analyte, pH 6.0, 1:1 Langmuir fit
Protocol: as §2

[12] = biological target: T3, human serum albumin (HSA); experiment: HSA binding ELISA: HSA coated, bound AFFIMER detected with biotinylated anti-cystatin A antibody and streptavidin-HRP
Protocol: as §1

[13] = biological target: T3, human serum albumin (HSA); experiment: SPR (Biacore) kinetics: HSA immobilised on a CM5 chip, AFFIMER as analyte, pH 7.4
[14] = biological target: T2, human PD-L1-Fc (R&D Systems); experiment: SPR (Biacore) kinetics: human PD-L1-Fc immobilised on a CM5 chip, AFFIMER as analyte
[15] = biological target: T1, PD-L1 on cells (NCI-H441 cells; aAPC …); experiment: flow cytometry on PD-L1 expressing cells
[16] = biological target: T3, human serum albumin (HSA); experiment: HSA binding ELISA: HSA coated, anti-cystatin A detection

T1 sequence (Q9NZQ7 19-290): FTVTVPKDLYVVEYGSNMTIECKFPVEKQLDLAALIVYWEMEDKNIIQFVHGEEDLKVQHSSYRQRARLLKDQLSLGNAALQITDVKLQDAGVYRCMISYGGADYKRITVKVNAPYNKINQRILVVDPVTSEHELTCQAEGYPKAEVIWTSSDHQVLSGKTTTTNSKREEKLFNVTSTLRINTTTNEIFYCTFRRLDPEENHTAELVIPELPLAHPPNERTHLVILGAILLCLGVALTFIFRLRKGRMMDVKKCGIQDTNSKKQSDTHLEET
T3 sequence (P02768 25-609): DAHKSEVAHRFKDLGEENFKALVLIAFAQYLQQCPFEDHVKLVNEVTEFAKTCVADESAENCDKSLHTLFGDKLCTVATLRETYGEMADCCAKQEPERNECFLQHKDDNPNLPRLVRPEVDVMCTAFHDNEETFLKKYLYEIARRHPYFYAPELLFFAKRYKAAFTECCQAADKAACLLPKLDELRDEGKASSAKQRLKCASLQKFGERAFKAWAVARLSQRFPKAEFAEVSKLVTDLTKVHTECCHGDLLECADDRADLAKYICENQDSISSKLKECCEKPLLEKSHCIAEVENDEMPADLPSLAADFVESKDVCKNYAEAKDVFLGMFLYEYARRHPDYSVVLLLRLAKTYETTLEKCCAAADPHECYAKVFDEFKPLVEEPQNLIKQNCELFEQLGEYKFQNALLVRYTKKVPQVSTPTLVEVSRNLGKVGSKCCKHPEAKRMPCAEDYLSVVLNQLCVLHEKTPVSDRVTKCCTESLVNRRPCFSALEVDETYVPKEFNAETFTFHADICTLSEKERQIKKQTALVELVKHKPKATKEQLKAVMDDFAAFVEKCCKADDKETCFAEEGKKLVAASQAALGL
T2 sequence (Q9NZQ7 19-239 limits assumed): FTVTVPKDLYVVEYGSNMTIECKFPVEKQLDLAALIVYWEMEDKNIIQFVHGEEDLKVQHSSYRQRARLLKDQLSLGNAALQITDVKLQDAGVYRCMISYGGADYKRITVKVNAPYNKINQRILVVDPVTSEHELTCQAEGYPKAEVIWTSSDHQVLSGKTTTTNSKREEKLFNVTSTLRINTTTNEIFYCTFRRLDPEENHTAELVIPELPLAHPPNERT

Kd [5]	koff [5]	kon [5]	Kd [11]	koff [11]	kon [11]	EC50 [12]	Kd [13]	koff [13]	kon [13]	Kd [14]	koff [14]	kon [14]	binding result [15]	also measured	Binder
5.01 nM	0.00364 s⁻¹	727000 M⁻¹ s⁻¹	3.36 nM	0.00271 s⁻¹	808000 M⁻¹ s⁻¹	0.02 nM								EC50 (read off the curve) [1]: ~1 nM; IC50 [2]: 2.3 nM; EC50 [3]: 0.02 nM; EC50 [4]: 0.56 nM; half-maximal concentration of PD-1/PD-L1 blockade (% of inhibition, NFAT-luciferase reporter cells; IC50) [6]: 105 nM; Kd [7]: 0.224 nM; EC50 [8]: 0.03 nM; EC50 [9]: 0.64 nM and 1.28 nM; EC50 [10]: 0.1 nM	B1
							0.18 nM	0.00189 s⁻¹	1.05e+07 M⁻¹ s⁻¹	0.172 nM	0.000212 s⁻¹	1.24e+06 M⁻¹ s⁻¹			B2
1.08 nM	0.00272 s⁻¹	2.52e+06 M⁻¹ s⁻¹	7.36 nM	0.00276 s⁻¹	375000 M⁻¹ s⁻¹	0.02 nM							no binding		B3
1.45 nM	0.00259 s⁻¹	1.79e+06 M⁻¹ s⁻¹	1.28 nM	0.00205 s⁻¹	1.61e+06 M⁻¹ s⁻¹	0.04 nM							no binding		B4
							1.07 nM	0.00436 s⁻¹	4.06e+06 M⁻¹ s⁻¹					EC50 [16]: 0.85 nM	B5
							1.54 nM	0.00273 s⁻¹	1.77e+06 M⁻¹ s⁻¹	0.0668 nM	9.33e-05 s⁻¹	1.4e+06 M⁻¹ s⁻¹			B6

Reference: patent publication US20240409638A1 (AVACTA LIFE SCIENCES, published 2024)
